Results taken from PMC3844621.

Tests used:
[1] = biological target: T1 scTCR with wild-type CDR loops (stabilized version), Y51A, soluble (human); experiment: SPR
[2] = biological target: T1-S18.45 Q31A scTv, yeast-displayed (human); experiment: flow cytometry on cells

Kd [1] | other [2] | Substance
> 1000 µM |  | MART-1/HLA-A2 of the steady-state SPR (peptide variant not stated) (from UniProt P61769 21-119) (peptide-MHC)
 | > 15 fold | MART-1/HLA-A2-biotin monomer (UV peptide exchange) (from UniProt P61769 21-119) (peptide-MHC)
